Literature values in patent US12419862B2, “Use of a cathepsin s inhibitor against the formation of anti-drug antibodies” (Hoffmann-La Roche Inc., priority 2018, dated 2025).

Conditions: current standard of care in IBD; cited from earlier work

For “infliximab: anti-TNFalpha antibody, known to be highly immunogenic”, the reported immunogenicity rates is listed as “up to 51%”.

In the case of adalimumab, the reported immunogenicity rates is given as at most 26%.
